We go through 17 molecules from patent publication US20240382605A1 (IONIS PHARMACEUTICALS, published 2024).

Read-outs that look alike come from different tables or passages of the source. Starred links: 1 amine or outer side, 2 acyl side, 3 side chain; linkers in the order of their positions; H or OH if unused. Positions of bridges follow the written chain, without caps; N, C: chain ends. Non-standard residues stand in square brackets, D forms with d. Primed or numbered codes have the meaning given here. No end group written: not given here. *: point of attachment. azidopropyl = N-terminal modification AzPro, [N-]=[N+]=NCCC*; TATB = O=C(C[*:1])N1CN(C(=O)C[*:2])CN(C(=O)C[*:3])C1; oligonucleotide 1590463 = not defined here; Lys(N3) = [N-]=[N+]=NCCCC[C@H](N)C(=O)O; Hyp = O=C(O)[C@@H]1C[C@@H](O)CN1; azidopropyl″ = [N-]=[N+]=NCCC*

Experiment [1] has as its target T1, hCD71-Nluc fusion protein (human, UniProt P02786 1-760).
T1 construct: whole, on cells; Used as crude membrane fractions of HEK293 cells stably expressing hCD71-Nluc; also called human transferrin receptor, CD71, fused to NanoLuc; not shown: NanoLuc (ProMega) luciferase joined through its N-terminal Val
Kind of experiment: nanoBRET competition, tracer BCY17871-1598988 60 nM, HEK293 hCD71-Nluc membranes. In general terms: Bioluminescence resonance energy transfer reports proximity on the nanometre scale.

A further experiment deals with T2, CD71 (Homo sapiens (Human), UniProt P02786 89-760).
T2 construct: also called transferrin receptor; TfR1
T2 sequence (P02786 89-760 limits assumed, form in doubt): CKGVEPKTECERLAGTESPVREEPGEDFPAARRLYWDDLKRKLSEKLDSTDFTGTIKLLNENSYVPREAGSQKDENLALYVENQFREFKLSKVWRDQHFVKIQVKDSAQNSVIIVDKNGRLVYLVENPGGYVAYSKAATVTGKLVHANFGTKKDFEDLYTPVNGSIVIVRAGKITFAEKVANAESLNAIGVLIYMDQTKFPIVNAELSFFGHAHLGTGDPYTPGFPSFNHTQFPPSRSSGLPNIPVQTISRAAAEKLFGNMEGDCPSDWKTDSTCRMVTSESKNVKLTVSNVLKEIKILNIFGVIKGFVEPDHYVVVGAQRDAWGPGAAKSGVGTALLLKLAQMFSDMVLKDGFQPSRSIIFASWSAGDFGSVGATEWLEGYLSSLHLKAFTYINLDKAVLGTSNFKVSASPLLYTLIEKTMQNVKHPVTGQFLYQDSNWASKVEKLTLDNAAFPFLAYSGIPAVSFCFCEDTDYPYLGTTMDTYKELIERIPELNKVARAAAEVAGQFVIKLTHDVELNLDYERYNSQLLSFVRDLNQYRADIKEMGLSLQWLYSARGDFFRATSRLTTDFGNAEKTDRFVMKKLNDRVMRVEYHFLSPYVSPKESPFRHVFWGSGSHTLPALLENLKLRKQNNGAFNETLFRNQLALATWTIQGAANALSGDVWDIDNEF
Briefly: SPR Biacore X100, conjugate duplexed to biotin-DNA on streptavidin chip, CD71 injected 6.25-100 nM, 1:1 fit.

The target in experiment [2] is T1, hCD71-Nluc fusion protein. Briefly: nanoBRET competition, tracer BCY17871-1598988 60 nM, HEK293 hCD71-Nluc membranes. This is another data set of the same source.
Description: (§1) The mixtures were incubated for 3 hours at room temperature to reach equilibrium. To initiate BRET, 12.4 μL of 100 μM of the Nluc substrate furimazine was added to each well, and the mixtures were incubated for 5-30 minutes. The assay plate was read on a Promega GlowMax Discover plate reader at wavelengths of 450 nm and 600 nm, and the ratio of emissions at wavelengths 450/600 were used to yield % BRET efficiency. Data was subjected to non-linear regression, then fitted to a single site binding hyperbolic function.
(§2) In order to evaluate modified oligonucleotides conjugated to CD71 bicycle ligands and RNAi compounds conjugated to CD71 bicycle ligands, the assay was modified as follows. […] Modified oligonucleotides were conjugated to the bicycle ligands through a SPAAC reaction These were then added at a range of concentrations in triplicate assays points, and the mixtures were incubated for 3 hours at room temperature. BRET was initiated with the addition of furimazine and the assay was completed as described above.
Experiment [3] concerns the target T1, hCD71-Nluc fusion protein. Described as above. This is another data set of the same source.
Description: as §1, §2
Experiment [4] concerns the target T1, hCD71-Nluc fusion protein. The description is as above. This is another data set of the same source.
Description: as §1, §2
For experiment [5], the target named is T1, hCD71-Nluc fusion protein. Described as above. This is another data set of the same source.
Description: as §1, §2
Experiment [6] addresses T1, hCD71-Nluc fusion protein. The description is as above. This is another data set of the same source.
Description: as §1, §2
Experiment [7] addresses T1, hCD71-Nluc fusion protein. Briefly: nanoBRET saturation binding, HEK293 hCD71-Nluc membranes, single site fit.
Description: as §1
Experiment [8] concerns the target T1, hCD71-Nluc fusion protein. Briefly: nanoBRET competition, tracer BCY17871-1598988 60 nM, HEK293 hCD71-Nluc membranes. The source holds these as a separate data set.
Description: as §1, §2

T1 sequence (P02786 other isoform, or with tags, fused parts or gaps): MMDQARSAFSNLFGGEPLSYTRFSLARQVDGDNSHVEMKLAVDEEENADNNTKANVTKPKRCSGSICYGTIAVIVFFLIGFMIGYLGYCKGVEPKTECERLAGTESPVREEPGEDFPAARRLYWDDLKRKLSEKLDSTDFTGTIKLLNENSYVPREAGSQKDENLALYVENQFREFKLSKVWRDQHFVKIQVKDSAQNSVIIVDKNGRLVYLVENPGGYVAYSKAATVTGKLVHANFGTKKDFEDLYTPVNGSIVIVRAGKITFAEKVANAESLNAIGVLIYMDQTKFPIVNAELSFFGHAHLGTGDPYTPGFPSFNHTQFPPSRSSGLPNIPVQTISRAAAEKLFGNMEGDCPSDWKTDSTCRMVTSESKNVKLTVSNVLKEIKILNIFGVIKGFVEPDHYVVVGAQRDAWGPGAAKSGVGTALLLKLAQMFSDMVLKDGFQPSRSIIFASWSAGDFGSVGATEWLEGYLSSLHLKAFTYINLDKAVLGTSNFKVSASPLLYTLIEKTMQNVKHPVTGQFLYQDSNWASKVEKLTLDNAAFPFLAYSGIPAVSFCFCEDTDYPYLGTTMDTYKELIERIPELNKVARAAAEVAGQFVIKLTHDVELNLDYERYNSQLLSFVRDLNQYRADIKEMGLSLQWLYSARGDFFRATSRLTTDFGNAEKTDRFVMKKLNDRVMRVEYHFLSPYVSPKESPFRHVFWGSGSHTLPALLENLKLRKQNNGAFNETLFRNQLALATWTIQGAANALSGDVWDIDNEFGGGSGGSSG

B1: 1590463-BCY17870 (peptide)
peptide: NWNCSPDAHLGCISYCX
modifications: not fully specified; as printed NWNCSPDAHLGCISYC[K(N3)]: no N-terminal modification; C-terminal amide; three Cys bound to TATB scaffold; [K(N3)] 6-azido lysine at 17 joined via BCN linker to oligonucleotide 1590463
notes: also called Compound No. 1590463 conjugated to BCY17870
The Ki is a measure of affinity in units of concentration, obtained from inhibition or displacement. The Kd is the constant that tells how readily two partners part at equilibrium. The low end stands for tighter binding, the high end for weaker binding. B1 came in with a Ki in experiment [1] of 7 nM. This molecule had a Kd in the experiment with CD71 of 0.1 nM.

B2: 1590463-BCY17904 (peptide)
peptide: Ac-CS[Lys(N3)]DAHLGCISYC-NH2
modifications: linker 1-9-13 via TATB; not fully specified (residue 3); printed as CS[K(N3)]DAHLGCISYC; also: azide of K(N3) in loop clicked via BCN linker to oligonucleotide 1590463
notes: also called Compound No. 1590463 conjugated to BCY17904
In the case of B2, the Ki in [2] is 31 nM; in experiment [3], 5 nM; in experiment [4], 60 nM.

B3: 1590463-BCY17869 (peptide)
peptide: {oligonucleotide 1590463-BCN linker-azidopropyl″}-CSPDAHLGCISYC-NH2
modifications: linker 1-9-13 via TATB; reading uncertain
notes: also called Compound No. 1590463 conjugated to BCY17869
B3: in experiment [1], the Ki came out at 55 nM. In the experiment with CD71, the Kd came to 14.5 nM.

B4: 1590463-BCY19405 (peptide)
peptide: Ac-CSPDAHLGCISYCEPW
modifications: linker 1-9-13 via TATB; not fully specified (C-terminus); printed as CSPDAHLGCISYCEPW[PEG10][K(N3)]; also: azide of C-terminal K(N3) clicked via BCN linker to oligonucleotide 1590463
notes: also called Compound No. 1590463 conjugated to BCY19405
With B4, the Ki in [5] stood at 3 nM.

B5: 1598988-BCY17896 (peptide)
peptide: CPXDAYLGCXSYCX
modifications: as printed CP[HyP]DAYLGC[tBuGly]SYC[K(N3)]: N-terminal acetyl; C-terminal amide; three Cys bound to TATB scaffold; [HyP] 4-trans-hydroxy-L-proline at 3; [tBuGly] t-butyl glycine at 10; [K(N3)] 6-azido lysine at 14 joined via BCN linker to oligonucleotide 1598988
In [6], B5 gave a Ki of 9.9 nM.

B6: 1614439-BCY17906 (peptide)
peptide: CSPDAHLGCISYCX
modifications: not fully specified; as printed CSPDAHLGCISYC[K(N3)(PYA-Maleimide)]: N-terminal acetyl; C-terminal amide; three Cys bound to TATB scaffold; modified lysine [K(N3)(PYA-Maleimide)] at 14 joined to oligonucleotide 1614439 (5' 6-mercaptohexanol linker)
notes: the coupling chemistry of this pair is not spelled out; also called Compound No. 1614439 conjugated to BCY17906
Take B6: the Ki in experiment [3] was determined as 2 nM; in experiment [4], 23 nM.

B7: 1590463-BCY19406 (peptide)
peptide: Ac-CSPDAHLGCISYCEPW
modifications: linker 1-9-13 via TATB; not fully specified (C-terminus); printed as CSPDAHLGCISYCEPW[PEG24][K(N3)]; also: azide of C-terminal K(N3) clicked via BCN linker to oligonucleotide 1590463
notes: also called Compound No. 1590463 conjugated to BCY19406
On to B7, for which the Ki in experiment [5] was 2 nM.

B8: BCY17871-1598988 (peptide)
peptide: NWNCSPDAHLGCISYCX
modifications: as printed NWNCSPDAHLGCISYC[K(N3)]: N-terminal acetyl; C-terminal amide; three Cys bound to TATB scaffold; [K(N3)] 6-azido lysine at 17 joined by SPAAC to BCN on oligonucleotide 1598988
notes: also called tracer compound
B8: the Kd in experiment [7] is 57 to 58 nM.

B9: 1590463-BCY17871 (peptide)
peptide: NWNCSPDAHLGCISYCX
modifications: not fully specified; as printed NWNCSPDAHLGCISYC[K(N3)]: N-terminal acetyl; C-terminal amide; three Cys bound to TATB scaffold; [K(N3)] 6-azido lysine at 17 joined via BCN linker to oligonucleotide 1590463
notes: also called Compound No. 1590463 conjugated to BCY17871
Regarding B9, the Ki in experiment [1] came out at 6 nM. In the experiment with CD71, this molecule showed a Kd of 2.4 nM.

B10: 486178:1614438-BCY17873 (peptide)
peptide: CSPDAHLGCISYCEPWX
modifications: not fully specified; as printed CSPDAHLGCISYCEPW[K(N3)]: N-terminal acetyl; C-terminal amide; three Cys bound to TATB scaffold; [K(N3)] 6-azido lysine at 17 joined via BCN linker to oligonucleotide 1614438 of the duplex 486178:1614438
notes: nucleic acids; also called Compound No. 486178:1614438 conjugated to BCY17873
Turning to B10, in [8], the affinity corresponds to a Ki of 95 nM.

B11: 1590463-BCY17890 (peptide)
peptide: CSPDAHLGCISYCEXWX
modifications: not fully specified; as printed CSPDAHLGCISYCE[dP]W[K(N3)]: N-terminal acetyl; C-terminal amide; three Cys bound to TATB scaffold; [dP] D-proline at 15; [K(N3)] 6-azido lysine at 17 joined via BCN linker to oligonucleotide 1590463
notes: also called Compound No. 1590463 conjugated to BCY17890
On to B11, for which the Ki stood at 17 nM in experiment [2], 2 nM in [3] and 20 nM in experiment [4].

B12: 1590463-BCY17868 (peptide)
peptide: CSPDAHLGCISYCX
modifications: not fully specified; as printed CSPDAHLGCISYC[K(N3)]: N-terminal acetyl; C-terminal amide; three Cys bound to TATB scaffold; [K(N3)] 6-azido lysine at 14 joined via BCN linker to oligonucleotide 1590463
notes: also called Compound No. 1590463 conjugated to BCY17868
In turn, B12 displayed a Ki in experiment [1] of 20 nM. The Kd with CD71 worked out at 0.9 nM.

B13: 1590463-BCY17892 (peptide)
peptide: CSPDAHLGCISYCEXWX
modifications: not fully specified; as printed CSPDAHLGCISYCE[Aze]W[K(N3)]: N-terminal acetyl; C-terminal amide; three Cys bound to TATB scaffold; [Aze] azetidine at 15; [K(N3)] 6-azido lysine at 17 joined via BCN linker to oligonucleotide 1590463
notes: also called Compound No. 1590463 conjugated to BCY17892
With B13, the Ki was 11 nM in experiment [2], 1 nM in [3] and 11 nM in [4].

B14: 1590463-BCY17903 (peptide)
peptide: Ac-C[Lys(N3)]PDAHLGCISYC-NH2
modifications: linker 1-9-13 via TATB; not fully specified (residue 2); printed as C[K(N3)]PDAHLGCISYC; also: azide of K(N3) in loop clicked via BCN linker to oligonucleotide 1590463
notes: also called Compound No. 1590463 conjugated to BCY17903
With B14, the Ki is 125 nM in [2] and 24 nM in [3].

B15: 1590463-BCY17896 (peptide)
peptide: CPXDAYLGCXSYCX
modifications: not fully specified; as printed CP[HyP]DAYLGC[tBuGly]SYC[K(N3)]: N-terminal acetyl; C-terminal amide; three Cys bound to TATB scaffold; [HyP] 4-trans-hydroxy-L-proline at 3; [tBuGly] t-butyl glycine at 10; [K(N3)] 6-azido lysine at 14 joined via BCN linker to oligonucleotide 1590463
notes: also called Compound No. 1590463 conjugated to BCY17896
B15: the Ki was found to be 2 nM in experiment [2], 1 nM in experiment [3] and 2 nM in experiment [4].

B16: 1590463-BCY17876 (peptide)
peptide: {oligonucleotide 1590463-BCN linker-azidopropyl}-CP[Hyp]DAYLGCISYC-NH2
modifications: linker 1-9-13 via TATB; reading uncertain; also: printed as CP[HyP]DAYLGCISYC
notes: also called Compound No. 1590463 conjugated to BCY17876
As to B16, the affinity in experiment [1], expressed as Ki, was 29 nM. This molecule showed a Kd with CD71 of 95.4 nM.

B17: 1590463-BCY17874 (peptide)
peptide: {oligonucleotide 1590463-BCN linker-azidopropyl}-CSPDAHLGCISYCEPW-NH2
modifications: linker 1-9-13 via TATB; reading uncertain
notes: also called Compound No. 1590463 conjugated to BCY17874
Regarding B17, the Ki in experiment [1] is 10 nM. The Kd in the experiment with CD71 is 32 nM.
